Target: T1, human matriptase-2 ECD protein his tag (human, UniProt Q8IU80 78-811)
T1 construct: also called human MTP-2 ECD; huMTP-2
T1 sequence: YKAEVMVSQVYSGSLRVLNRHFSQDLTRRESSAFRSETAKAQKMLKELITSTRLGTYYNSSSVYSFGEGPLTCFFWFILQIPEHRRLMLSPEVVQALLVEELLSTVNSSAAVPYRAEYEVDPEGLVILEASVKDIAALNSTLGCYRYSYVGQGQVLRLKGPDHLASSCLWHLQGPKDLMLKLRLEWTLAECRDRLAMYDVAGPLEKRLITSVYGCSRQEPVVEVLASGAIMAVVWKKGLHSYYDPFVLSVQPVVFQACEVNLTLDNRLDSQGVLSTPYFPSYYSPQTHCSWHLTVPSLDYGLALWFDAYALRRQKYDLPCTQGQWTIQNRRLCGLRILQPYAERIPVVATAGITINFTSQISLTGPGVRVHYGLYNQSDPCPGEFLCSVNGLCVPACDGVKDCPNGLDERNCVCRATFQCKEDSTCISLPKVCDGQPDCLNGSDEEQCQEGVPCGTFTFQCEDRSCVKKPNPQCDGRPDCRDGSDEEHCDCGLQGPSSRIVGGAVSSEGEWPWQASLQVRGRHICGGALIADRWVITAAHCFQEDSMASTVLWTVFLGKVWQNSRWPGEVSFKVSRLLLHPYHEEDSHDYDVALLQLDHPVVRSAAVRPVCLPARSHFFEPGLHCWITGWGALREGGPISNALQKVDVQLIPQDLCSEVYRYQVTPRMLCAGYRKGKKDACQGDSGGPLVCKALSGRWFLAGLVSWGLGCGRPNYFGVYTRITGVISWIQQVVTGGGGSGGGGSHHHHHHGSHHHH
Experiment: SPR, his-tagged MTP-2 ECD protein (Table W); true KD could not be measured accurately, very slow off-rate
Experimental: Off-rate screening was performed by surface plasmon resonance (SPR), using a Biacore 8K system (GE Healthcare). Anti-human Fc mix (˜1000 RU) were immobilised in both active and reference channels in HBS-P+ buffer (GE BR100671) pH 7.4. Anti-MTP-2 hulgG4PE antibodies were then captured for 60 sec at 10 μl/min at 1 μg/ml concentration (approximatively 35 and 50 RU were captured) only on the active channel. MTP-2 ECD protein analytes were then injected (at 100, 25, 6.25, 1.56 and 0 nM concentrations) for 120 sec (association time) at 30 μl/min and dissociation monitored for 600 sec. Multiple cycle kinetics mode was used with all 8 channels being used. Reference and background were subtracted from the sensorgrams for each antibody and data was fitted using a 1:1 interaction model in the Biacore evaluation software. Rmax, ka, kd globally fitted, RI=0.
NORI-011, NORI-008, NORI-003 and NORI-006 were all found to have cross-reactive binding to human, mouse, cyno and rat MTP-2 ECD proteins. […] The true KD value for NORI-008 could not be measured accurately for human or mouse MTP-2 due to a very slow off-rate.

B1: NORI-008 (antibody, human IgG4 S228P, kappa, V domains shown)
VH: QVQLQESGPGLVKPSETLSLTCSVSGGSVSSGRYYWTWIRQPPGKGLEWIGYISNSGNTNYNPSLKSRVTISLDTSKKQFSLSLSAVTAADTAVYYCARGFIYDYWFDPWGQGSLVTVSS
VL: DSQMTQSPSSLSASVGDRVTITCQASQDIDNYLNWYQQRPGKAPKLLIYDASKLETGVPSRFSGSGSGTDFTFTISSLQPEDFATYYCQQYGNLPITFGQGTRLDIKR
notes: human IgG4PE, kappa, in the in vitro assays; a mouse IgG1 format was used in one in vivo study only; also called NORI-008 hulgG4PE; NORI-008 IgG
Kd: 0.0169 pM

From patent US20230025129A1 (KYMAB, published 2023)
